± gives the standard deviation of the averaged measurements.
B1: library; a variant is named by its letters at N, in order (parent)
chain: GCUGUCACCGAGAAACUGUGAAGUAUAUCUUAAACCUGGGCACUUAAAAGAUAUAUGGAGUUAGUAGUGCAACCUGCUCGGUCUGAUGAGUCCNNNNNNGGACGAAACAGC

How the values were obtained:
[1] = variants of: B1; experiment: normalized RNA/DNA level without ligand (relative to sTRSVctl = 100) (log10 (% of sTRSVctl)); HEK293T; ligand: cyclic di-GMP (c-di-GMP-II aptamer); higher = less ribozyme self-cleavage, higher mRNA level; settings: reporter: mCherry (pCS4076), ligand present: no
Procedure, shortened: (§1)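 For each 6-well well, 4 µg of library plasmid encoding mCherry-linked ribozyme switches, or eGFP-linked ones in some ligand experiments, was transfected into HEK293T. Any ligand was added 1 h before transfection, and RNA was extracted with EDTA 72 h after it, then reverse-transcribed, amplified, barcoded and sequenced. RNA level was obtained by dividing RNA reads by DNA reads, normalizing to a spiked-in non-cleaving sequence or to the top sequences, then scaling and log-transforming. The top set was 25 sequences, scaling was ×100 with log10, and ≥100 DNA reads were required.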

[2] = variants of: B1; experiment: normalized RNA/DNA level with ligand (relative to sTRSVctl = 100) (log10 (% of sTRSVctl)); HEK293T; ligand: cyclic di-GMP (c-di-GMP-II aptamer); ligand concentration (+) RNA-Seq: 1 mM; higher = less ribozyme self-cleavage, higher mRNA level; settings: reporter: mCherry (pCS4076), ligand present: yes
Procedure, shortened: as §1

Row | Variant | normalized RNA/DNA level without ligand (log10) [1] | normalized RNA/DNA level with ligand (log10) [2]
1 | UGCUCU | 1.77 ± 0.018 | 1.92 ± 0.05
2 | UGCUCC | 1.858 ± 0.016 | 1.93 ± 0.17
3 | UGCUCG | 1.77 ± 0.059 | 1.89 ± 0.16
4 | UGCUCA | 1.762 ± 0.015 | 1.85 ± 0.09
5 | UGGACA | 1.712 ± 0.0091 | 1.83 ± 0.11
6 | UGGACG | 1.782 ± 0.011 | 1.86 ± 0.15
7 | UGGUGC | 1.72 ± 0.053 | 1.86 ± 0.099
8 | CGGGCG | 1.83 ± 0.066 | 1.94 ± 0.092
9 | CGGGCC | 1.92 ± 0.02 | 1.95 ± 0.067
10 | CGGGCU | 1.84 ± 0.033 | 1.92 ± 0.14
11 | CGGGCA | 1.81 ± 0.064 | 1.9 ± 0.13
12 | GGGCCC | 1.92 ± 0.07 | 1.99 ± 0.056
13 | GGCGGC | 1.71 ± 0.021 | 1.89 ± 0.13
14 | AGCGUU | 1.678 ± 0.0089 | 1.82 ± 0.16
15 | AGCGUA | 1.55 ± 0.087 | 1.71 ± 0.1
16 | CGGUAG | 1.731 ± 0.0046 | 1.84 ± 0.038
17 | UGGCUC | 1.78 ± 0.047 | 1.92 ± 0.077
18 | UGGCUG | 1.836 ± 0.013 | 1.9 ± 0.095
19 | UGGCUA | 1.719 ± 0.003 | 1.87 ± 0.11
20 | UGGCUU | 1.694 ± 0.014 | 1.88 ± 0.058

Row | Variant | normalized RNA/DNA level without ligand (log10) [1] | normalized RNA/DNA level with ligand (log10) [2]
21 | UGCUGC | 1.76 ± 0.025 | 1.92 ± 0.1
22 | UGCUGA | 1.6 ± 0.017 | 1.8 ± 0.085
23 | UGCUGG | 1.696 ± 0.014 | 1.87 ± 0.15
24 | UGCUGU | 1.748 ± 0.01 | 1.87 ± 0.1
25 | CGGAGG | 1.623 ± 0.014 | 1.82 ± 0.12
26 | CGGAGA | 1.32 ± 0.11 | 1.55 ± 0.13
27 | CGGAGU | 1.63 ± 0.03 | 1.8 ± 0.1
28 | AGCUUC | 1.77 ± 0.026 | 1.9 ± 0.059
29 | AGCUUA | 1.57 ± 0.055 | 1.76 ± 0.11
30 | AGCUUU | 1.712 ± 0.0062 | 1.85 ± 0.12
31 | UGGGGG | 1.79 ± 0.055 | 1.87 ± 0.09
32 | UGGGGA | 1.58 ± 0.085 | 1.73 ± 0.073
33 | UGGGGC | 1.767 ± 0.012 | 1.91 ± 0.1
34 | UGGGGU | 1.63 ± 0.056 | 1.77 ± 0.11
35 | GGCUAA | 1.55 ± 0.09 | 1.71 ± 0.14
36 | GGCUAU | 1.66 ± 0.048 | 1.78 ± 0.021
37 | GGCUAG | 1.5161 ± 0.00019 | 1.683 ± 0.0052
38 | GGCUAC | 1.7 ± 0.023 | 1.84 ± 0.085
39 | UGCGCG | 1.821 ± 0.0063 | 1.92 ± 0.085
40 | UGCGCU | 1.72 ± 0.032 | 1.89 ± 0.11

Row | Variant | normalized RNA/DNA level without ligand (log10) [1] | normalized RNA/DNA level with ligand (log10) [2]
41 | GGGGAA | 1.48 ± 0.1 | 1.54 ± 0.055
42 | AGGCUC | 1.78 ± 0.034 | 1.87 ± 0.087
43 | AGGCUG | 1.774 ± 0.0035 | 1.87 ± 0.051
44 | AGGCUA | 1.51 ± 0.084 | 1.65 ± 0.095
45 | AGGUAC | 1.67 ± 0.038 | 1.81 ± 0.077
46 | AGGUAG | 1.54 ± 0.034 | 1.66 ± 0.046
47 | UGGAAG | 1.68 ± 0.026 | 1.81 ± 0.17
48 | UGGAAA | 1.626 ± 0.0078 | 1.83 ± 0.059
49 | AGGCAA | 1.45 ± 0.082 | 1.6 ± 0.11
50 | AGGCAC | 1.707 ± 0.011 | 1.84 ± 0.12
51 | AGGCAU | 1.63 ± 0.018 | 1.83 ± 0.11
52 | CGCGCG | 1.83 ± 0.025 | 1.92 ± 0.038
53 | CGCGCU | 1.702 ± 0.016 | 1.83 ± 0.11
54 | UGCUUC | 1.766 ± 0.017 | 1.89 ± 0.093
55 | UGCUUA | 1.75 ± 0.023 | 1.87 ± 0.095
56 | UGCUUG | 1.74 ± 0.06 | 1.88 ± 0.14
57 | GGGCAG | 1.823 ± 0.015 | 1.89 ± 0.045
58 | GGGCAA | 1.72 ± 0.046 | 1.8 ± 0.026
